According to article PMC5729022:

Key:
[1] = target: network soluble collagen type IV from human placenta (human) (UniProt P02462)
[2] = target: soluble fibrillar collagen type III from human placenta (human) (UniProt P02461)
[3] = target: insoluble microfibrillar collagen type I from bovine Achilles tendon, Col I(S) (bovine) (UniProt P02453)
[4] = target: insoluble microfibrillar collagen type I from bovine skin, Col I(D) (bovine) (UniProt P02453)
[5] = target: soluble fibrillar collagen type II from bovine tracheal cartilage (bovine) (UniProt P02459)
Chain of UniProt P02459 (P02459 182-1241): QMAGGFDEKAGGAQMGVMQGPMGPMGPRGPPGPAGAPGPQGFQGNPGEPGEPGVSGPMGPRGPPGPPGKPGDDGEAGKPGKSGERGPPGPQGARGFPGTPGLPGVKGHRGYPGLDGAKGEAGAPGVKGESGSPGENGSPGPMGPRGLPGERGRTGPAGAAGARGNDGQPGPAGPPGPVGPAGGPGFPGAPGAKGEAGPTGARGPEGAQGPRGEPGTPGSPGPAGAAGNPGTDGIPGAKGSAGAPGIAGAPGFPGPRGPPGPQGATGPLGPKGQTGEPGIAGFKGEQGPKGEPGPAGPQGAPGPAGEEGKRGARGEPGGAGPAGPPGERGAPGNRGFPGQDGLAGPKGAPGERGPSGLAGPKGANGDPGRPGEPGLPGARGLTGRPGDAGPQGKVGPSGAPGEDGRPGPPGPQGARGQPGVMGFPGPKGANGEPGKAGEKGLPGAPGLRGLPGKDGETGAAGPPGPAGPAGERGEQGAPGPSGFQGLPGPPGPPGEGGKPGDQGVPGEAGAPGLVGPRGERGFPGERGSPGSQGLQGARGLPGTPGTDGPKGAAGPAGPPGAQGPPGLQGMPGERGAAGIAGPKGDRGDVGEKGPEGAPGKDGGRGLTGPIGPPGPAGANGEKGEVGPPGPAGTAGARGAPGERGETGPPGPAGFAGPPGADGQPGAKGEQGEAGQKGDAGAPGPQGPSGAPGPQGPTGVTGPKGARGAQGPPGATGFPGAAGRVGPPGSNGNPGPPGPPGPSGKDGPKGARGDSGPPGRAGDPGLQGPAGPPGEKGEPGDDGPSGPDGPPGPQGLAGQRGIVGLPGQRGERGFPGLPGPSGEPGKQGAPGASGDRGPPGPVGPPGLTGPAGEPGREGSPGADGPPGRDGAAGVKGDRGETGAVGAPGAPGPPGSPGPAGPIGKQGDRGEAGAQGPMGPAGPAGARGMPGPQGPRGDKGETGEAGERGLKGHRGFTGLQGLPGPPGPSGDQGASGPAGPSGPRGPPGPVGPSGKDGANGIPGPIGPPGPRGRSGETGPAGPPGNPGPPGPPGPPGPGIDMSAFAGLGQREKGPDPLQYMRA

Chain of UniProt P02461 (P02461 154-1221): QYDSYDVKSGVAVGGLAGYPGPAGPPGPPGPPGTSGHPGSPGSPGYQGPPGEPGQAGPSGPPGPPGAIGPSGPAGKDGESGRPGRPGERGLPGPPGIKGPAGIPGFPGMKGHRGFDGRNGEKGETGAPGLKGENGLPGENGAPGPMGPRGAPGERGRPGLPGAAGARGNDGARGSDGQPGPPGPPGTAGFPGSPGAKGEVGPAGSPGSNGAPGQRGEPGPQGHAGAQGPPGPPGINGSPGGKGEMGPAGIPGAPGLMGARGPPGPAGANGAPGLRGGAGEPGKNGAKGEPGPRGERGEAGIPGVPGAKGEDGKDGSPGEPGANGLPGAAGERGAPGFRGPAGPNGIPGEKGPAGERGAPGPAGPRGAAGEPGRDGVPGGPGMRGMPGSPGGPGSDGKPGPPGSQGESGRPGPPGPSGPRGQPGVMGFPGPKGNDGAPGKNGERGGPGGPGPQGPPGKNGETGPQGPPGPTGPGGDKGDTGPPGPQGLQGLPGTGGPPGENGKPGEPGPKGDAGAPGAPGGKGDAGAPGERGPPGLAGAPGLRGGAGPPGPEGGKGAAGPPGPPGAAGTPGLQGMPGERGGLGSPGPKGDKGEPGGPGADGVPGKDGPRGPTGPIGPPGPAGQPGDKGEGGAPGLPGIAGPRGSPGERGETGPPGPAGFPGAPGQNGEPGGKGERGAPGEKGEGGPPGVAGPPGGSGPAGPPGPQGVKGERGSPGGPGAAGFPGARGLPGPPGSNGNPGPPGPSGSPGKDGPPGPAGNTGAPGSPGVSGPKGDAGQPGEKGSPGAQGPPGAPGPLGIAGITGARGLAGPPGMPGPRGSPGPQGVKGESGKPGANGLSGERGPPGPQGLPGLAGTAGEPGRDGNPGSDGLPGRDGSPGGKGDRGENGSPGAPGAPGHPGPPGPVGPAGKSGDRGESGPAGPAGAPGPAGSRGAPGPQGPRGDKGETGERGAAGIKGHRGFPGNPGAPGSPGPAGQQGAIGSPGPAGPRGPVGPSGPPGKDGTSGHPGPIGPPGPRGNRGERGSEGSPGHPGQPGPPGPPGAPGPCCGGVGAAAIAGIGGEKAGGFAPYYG

“recombinant human integrin α1 I domain (GST fusion) (from UniProt P56199 169-363) (domain or fragment)” was tested, and the percent of C2C12 cells transfected with human integrin α1 adhering to the collagen coating, 5 mM Mg2+, LDH assay, 1 × 10^5 cells/ml [1] was 51.9%.
“recombinant human integrin α2 I domain (GST fusion) (domain or fragment)” showed a percent of C2C12 cells transfected with human integrin α2 adhering to the collagen coating, 5 mM Mg2+, LDH assay, 1 × 10^5 cells/ml [2] of 18.5%, a percent of HT1080 cells (endogenous human α2β1) adhering to the collagen coating, 5 mM Mg2+, LDH assay, 1 × 10^5 cells/ml [2] of 28.1% and a percent of C2C12 cells transfected with human integrin α2 adhering to the collagen coating, 5 mM Mg2+, LDH assay, 1 × 10^5 cells/ml [3] of 44.2%. For the same substance, the percent of HT1080 cells (endogenous human α2β1) adhering to the collagen coating, 5 mM Mg2+, LDH assay, 1 × 10^5 cells/ml [3] was 45.6%, the percent of C2C12 cells transfected with human integrin α2 adhering to the collagen coating, 5 mM Mg2+, LDH assay, 1 × 10^5 cells/ml [1] was 16.1% and the percent of HT1080 cells (endogenous human α2β1) adhering to the collagen coating, 5 mM Mg2+, LDH assay, 1 × 10^5 cells/ml [1] was 24.7%. The percent of C2C12 cells transfected with human integrin α2 adhering to the collagen coating, 5 mM Mg2+, LDH assay, 1 × 10^5 cells/ml [4] was 36.5%, the percent of HT1080 cells (endogenous human α2β1) adhering to the collagen coating, 5 mM Mg2+, LDH assay, 1 × 10^5 cells/ml [4] was 43.6% and the percent of C2C12 cells transfected with human integrin α2 adhering to the collagen coating, 5 mM Mg2+, LDH assay, 1 × 10^5 cells/ml [5] was 23.9%. The percent of HT1080 cells (endogenous human α2β1) adhering to the collagen coating, 5 mM Mg2+, LDH assay, 1 × 10^5 cells/ml [5] was 40.3%.
In the case of “recombinant rat integrin α1 I domain (GST fusion) (domain or fragment)”, the percent of Rugli cells (endogenous rat α1β1) adhering to the collagen coating, 5 mM Mg2+, LDH assay, 1 × 10^5 cells/ml [2] is reported as 55.6%, the percent of Rugli cells (endogenous rat α1β1) adhering to the collagen coating, 5 mM Mg2+, LDH assay, 1 × 10^5 cells/ml [3] is reported as 22.8% and the percent of Rugli cells (endogenous rat α1β1) adhering to the collagen coating, 5 mM Mg2+, LDH assay, 1 × 10^5 cells/ml [1] is reported as 64.1%. For the same substance, the percent of Rugli cells (endogenous rat α1β1) adhering to the collagen coating, 5 mM Mg2+, LDH assay, 1 × 10^5 cells/ml [4] was 27% and the percent of Rugli cells (endogenous rat α1β1) adhering to the collagen coating, 5 mM Mg2+, LDH assay, 1 × 10^5 cells/ml [5] was 18.9%.
